Assay [1] deals with nectin-2 (Homo sapiens) (UniProt Q92692). Conditions: cited from earlier work.
The target in assay [2] is PVR (Homo sapiens) (UniProt P15151). Conditions: cited from earlier work.
Assay [3] has the same target. Conditions: cited from earlier work. This is another data set of the same source.
The target of assay [4] is T1, wild-type PVR fused with EGFP, extracted membrane protein (human), P15151.
T1 chain: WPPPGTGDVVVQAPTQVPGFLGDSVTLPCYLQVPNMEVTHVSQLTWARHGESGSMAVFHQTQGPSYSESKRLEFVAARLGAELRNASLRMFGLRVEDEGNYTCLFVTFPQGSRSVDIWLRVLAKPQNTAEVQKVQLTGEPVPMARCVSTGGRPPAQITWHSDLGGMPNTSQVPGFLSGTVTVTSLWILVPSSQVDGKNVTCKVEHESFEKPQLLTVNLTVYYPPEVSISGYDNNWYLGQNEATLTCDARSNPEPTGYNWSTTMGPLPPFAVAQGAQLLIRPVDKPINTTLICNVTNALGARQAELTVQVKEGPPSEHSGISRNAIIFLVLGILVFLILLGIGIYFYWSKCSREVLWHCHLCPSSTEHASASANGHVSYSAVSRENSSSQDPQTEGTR
The assay is described as follows: MST; extracted membrane protein of PVR or PVR mutants fused with EGFP (quantified by EGFP fluorescence) as the fluorescent partner; TIGIT-His serially diluted two-fold from 25 μM to 0.000153 μM. Conditions: remark: other sources report otherwise.

Assay [5] addresses T2, PVR mutant S72W fused with EGFP, extracted membrane protein (human, UniProt P15151 21-417, S72W).
T2 construct: poliovirus receptor (PVR, CD155), human; Probably the full-length membrane protein; also called PVRS72W; source: membrane protein extracted, quantified by EGFP fluorescence
T2 sequence (looked up): T1 chain with S52W
The description is as above. Conditions: one partner purified.

In assay [6] the target is T3, PVR mutant G131V fused with EGFP, extracted membrane protein (human, UniProt P15151 21-417, G131V).
T3 construct: poliovirus receptor (PVR, CD155), human; Probably the full-length membrane protein; also called PVRG131V; source: membrane protein extracted, quantified by EGFP fluorescence
T3 sequence (looked up): T1 chain with G111V
The description is as above. As to conditions: one partner purified.

The target in assay [7] is T4, PVR mutant S72R fused with EGFP, extracted membrane protein (human, UniProt P15151 21-417, S72R).
T4 construct: poliovirus receptor (PVR, CD155), human; Probably the full-length membrane protein; also called PVRS72R; source: membrane protein extracted, quantified by EGFP fluorescence
T4 sequence (looked up): T1 chain with S52R
Described as above. As to conditions: one partner purified.

Assay [8] has as its target T5, PVR mutant S132Q fused with EGFP, extracted membrane protein (human, UniProt P15151 21-417, S132Q).
T5 construct: poliovirus receptor (PVR, CD155), human; Probably the full-length membrane protein; also called PVRS132Q; source: membrane protein extracted, quantified by EGFP fluorescence
T5 sequence (looked up): T1 chain with S112Q
Described as above. Conditions: one partner purified.

Broadly, the Kd is the free concentration of one partner at which half of the binding sites on the other are occupied at equilibrium, for simple one-to-one binding.

Residue numbers refer to the chain shown, from its start. Like-named read-outs stand apart in the source and are kept apart here.

Chain of nectin-2 (Homo sapiens) (Q92692 32-360): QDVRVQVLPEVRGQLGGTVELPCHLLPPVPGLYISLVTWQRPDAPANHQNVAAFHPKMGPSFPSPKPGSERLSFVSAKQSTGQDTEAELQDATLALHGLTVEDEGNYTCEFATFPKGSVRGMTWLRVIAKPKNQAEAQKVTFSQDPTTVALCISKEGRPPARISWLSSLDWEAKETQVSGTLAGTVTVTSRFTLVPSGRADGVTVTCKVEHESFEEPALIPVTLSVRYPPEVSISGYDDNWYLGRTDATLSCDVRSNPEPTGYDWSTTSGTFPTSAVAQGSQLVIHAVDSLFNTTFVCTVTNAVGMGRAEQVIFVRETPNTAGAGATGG

For the molecule TIGIT (from UniProt Q495A1), the Kd in assay [1] is 5800 nM; in assay [2], 3200 nM.
Turning to CD96 (from UniProt P40200), the Kd in assay [3] is 10200 nM.

B1: TIGIT-His eukaryotic protein, Q495A1 22-244 (receptor)
chain: MMTGTIETTGNISAEKGGSIILQCHLSSTTAQVTQVNWEQQDQLLAICNADLGWHISPSFKDRVAPGPGLGLTLQSLTVNDTGEYFCIYHTYPDGTYTGRIFLEVLESSVAEHGARFQIP
modifications: here or on the partner: expressed in eukaryotic cells (glycosylated); His tag omitted; construct limits not given, so the mature extracellular domain (UniProt topology) is used by convention
In assay [4], B1 gave a Kd of 1150 nM.

B2: TIGIT-His eukaryotic protein (receptor)
chain: B1 chain
modifications: expressed in eukaryotic cells (glycosylated); His tag omitted; construct limits not given, so the mature extracellular domain (UniProt topology) is used by convention
Consider B2, for which the Kd in assay [5] turned out to be 328 nM; in assay [6] it was 16 nM; in assay [7] it was 549 nM; in assay [8] it was 58 nM.

Values taken from paper PMC7869511, “Computer-aided design of PVR mutants with enhanced binding affinity to TIGIT” (Cell Communication and Signaling : CCS, 2021).
